Source: US20210283212A1 (RA PHARMACEUTICALS, published 2021)
Positions of bridges follow the written chain, without caps; N, C: chain ends. Non-standard residues stand in square brackets, D forms with d. Primed or numbered codes have the meaning given here. No end group written: not given here. *: point of attachment. mXylyl(3) = bridging moiety between the two residues given in brackets; Lys(ivDde) = CC(C)CC(NCCCC[C@H](N)C(=O)O)=C1C(=O)CC(C)(C)CC1=O; mXylyl″ = bridging moiety between the two marked residues; Ala(1H-tetrazol-5-yl) = N[C@@H](Cc1nnn[nH]1)C(=O)O; Trp(5-F) = N[C@@H](Cc1c[nH]c2ccc(F)cc12)C(=O)O; Trp(7-aza) = N[C@@H](Cc1c[nH]c2ncccc12)C(=O)O; mXylyl(4) = bridging moiety between residues; Trp(1-Me) = Cn1cc(C[C@H](N)C(=O)O)c2ccccc21; Palmitoyl = CCCCCCCCCCCCCCCC(=O)*; NMeD = CN[C@@H](CC(=O)O)C(=O)O; Chg = N[C@H](C(=O)O)C1CCCCC1; Phg = N[C@H](C(=O)O)c1ccccc1; Tle = CC(C)(C)[C@H](N)C(=O)O; NMeS = CN[C@@H](CO)C(=O)O; Nva = CCC[C@H](N)C(=O)O; Mpa = O=C(O)CCS

B1: R3194 (peptide)
peptide: Ac-KVERFD[NMeD][Tle]Y[Trp(7-aza)]EYP[Chg]K(Palmitoyl)-NH2
modifications: lactam 1-6
SMILES: CCCCCCCCCCCCCCCC(=O)NCCCC[C@H](NC(=O)[C@@H](NC(=O)[C@@H]1CCCN1C(=O)[C@H](Cc1ccc(O)cc1)NC(=O)[C@H](CCC(=O)O)NC(=O)[C@H](Cc1c[nH]c2ncccc12)NC(=O)[C@H](Cc1ccc(O)cc1)NC(=O)[C@@H](NC(=O)[C@H](CC(=O)O)N(C)C(=O)[C@@H]1CC(=O)NCCCC[C@H](NC(C)=O)C(=O)N[C@@H](C(C)C)C(=O)N[C@@H](CCC(=O)O)C(=O)N[C@@H](CCCNC(=N)N)C(=O)N[C@@H](Cc2ccccc2)C(=O)N1)C(C)(C)C)C1CCCCC1)C(N)=O
B2: R3110 (peptide)
peptide: Ac-YEN[Tle]Y[Trp(1-Me)]EYP[Phg][Nva]-NH2
SMILES: CCC[C@H](NC(=O)[C@@H](NC(=O)[C@@H]1CCCN1C(=O)[C@H](Cc1ccc(O)cc1)NC(=O)[C@H](CCC(=O)O)NC(=O)[C@H](Cc1cn(C)c2ccccc12)NC(=O)[C@H](Cc1ccc(O)cc1)NC(=O)[C@@H](NC(=O)[C@H](CC(N)=O)NC(=O)[C@H](CCC(=O)O)NC(=O)[C@H](Cc1ccc(O)cc1)NC(C)=O)C(C)(C)C)c1ccccc1)C(N)=O
B3: R3119 (peptide)
peptide: Ac-YENY[dW]EYP[Phg][Nva]-NH2
SMILES: CCC[C@H](NC(=O)[C@@H](NC(=O)[C@@H]1CCCN1C(=O)[C@H](Cc1ccc(O)cc1)NC(=O)[C@H](CCC(=O)O)NC(=O)[C@@H](Cc1c[nH]c2ccccc12)NC(=O)[C@H](Cc1ccc(O)cc1)NC(=O)[C@H](CC(N)=O)NC(=O)[C@H](CCC(=O)O)NC(=O)[C@H](Cc1ccc(O)cc1)NC(C)=O)c1ccccc1)C(N)=O
B4: R3041 (peptide)
peptide: Ac-YEN[Tle]YWEYP[Phg][Nva]-NH2
SMILES: CCC[C@H](NC(=O)[C@@H](NC(=O)[C@@H]1CCCN1C(=O)[C@H](Cc1ccc(O)cc1)NC(=O)[C@H](CCC(=O)O)NC(=O)[C@H](Cc1c[nH]c2ccccc12)NC(=O)[C@H](Cc1ccc(O)cc1)NC(=O)[C@@H](NC(=O)[C@H](CC(N)=O)NC(=O)[C@H](CCC(=O)O)NC(=O)[C@H](Cc1ccc(O)cc1)NC(C)=O)C(C)(C)C)c1ccccc1)C(N)=O

Each binder was assayed against T1, human C5 protein (human, UniProt P01031 19-673; P01031 678-1676) (assay: cell-based or functional assay).

Binder	Avg. IC50 (nM), human hemolysis assay [nM]
Ac-CVERFCVYWEF-NH2 (linker 1-6 via mXylyl(3)) [R3124]	> 100000
Ac-CVERFCWEF-NH2 (linker 1-6 via mXylyl(3)) [R3125]	> 100000
Ac-CVERFCDVYWEF-NH2 (linker 1-6 via mXylyl(4)) [R3048]	19.3

Molecular target: T1, human C5 protein
Assay: cell-based or functional assay
Remark: another data set of the same source

Binder	IC50, formation of C5a (C5a EIA on human RBC hemolysis supernatant) [nM]	IC50, formation of the MAC (MAC EIA on human RBC hemolysis supernatant) [nM]	IC50, alternative pathway of complement activation (WIESLAB kit, serum samples) [nM]
VCYENGYWEYPGV (Ac-Nvl-C-Y-E-N-Tbg-Y-azaTrp-E-Y-P-Phg-Nvl-NH2) [R3002]	5.4	–	–
Ac-[Nva]C[Phg]T[Trp(7-aza)]EY[NMeS]HC[Nva]P[Nva]-NH2 (linker 2-10 via mXylyl″) [R3008]	54.5	33	–
KVERFDDGYWEYPGK ([cyclo(1,6)]Ac-K-V-E-R-F-D-(N-Me)D-Tbg-Y-azaTrp-E-Y-P-Chg-(Lys-C16)) [R3183]	–	6.9	12.5

Each binder was assayed against primate C5 protein (primate, UniProt A0A2K5U1T1 19-673; A0A2K5U1T1 678-1676, Mature C5 is a disulfide-linked heterodimer of beta and alpha chains; it is glycosylated. The letters do not carry either feature.) (assay: cell-based or functional assay).
primate C5 protein, sequence (beta, as listed by the source limits assumed, chain 1 of 2): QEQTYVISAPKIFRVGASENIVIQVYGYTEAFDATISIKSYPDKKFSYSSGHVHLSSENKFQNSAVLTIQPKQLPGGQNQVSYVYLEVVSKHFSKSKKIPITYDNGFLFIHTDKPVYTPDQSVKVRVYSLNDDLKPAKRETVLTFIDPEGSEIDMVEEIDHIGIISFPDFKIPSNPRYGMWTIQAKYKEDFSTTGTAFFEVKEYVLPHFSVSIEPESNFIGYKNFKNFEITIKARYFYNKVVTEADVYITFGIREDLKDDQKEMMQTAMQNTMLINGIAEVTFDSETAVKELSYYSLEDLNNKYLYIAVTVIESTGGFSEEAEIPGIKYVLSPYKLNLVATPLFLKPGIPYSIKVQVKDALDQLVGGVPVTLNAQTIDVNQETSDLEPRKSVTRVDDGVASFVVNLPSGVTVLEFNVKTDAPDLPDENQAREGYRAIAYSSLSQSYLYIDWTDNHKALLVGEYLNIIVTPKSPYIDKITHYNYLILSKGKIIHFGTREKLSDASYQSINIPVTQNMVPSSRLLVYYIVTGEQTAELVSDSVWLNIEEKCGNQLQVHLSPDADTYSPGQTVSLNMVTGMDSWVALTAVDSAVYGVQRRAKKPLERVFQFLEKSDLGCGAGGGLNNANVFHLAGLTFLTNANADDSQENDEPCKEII
primate C5 protein, sequence (alpha, as listed by the source limits assumed, chain 2 of 2): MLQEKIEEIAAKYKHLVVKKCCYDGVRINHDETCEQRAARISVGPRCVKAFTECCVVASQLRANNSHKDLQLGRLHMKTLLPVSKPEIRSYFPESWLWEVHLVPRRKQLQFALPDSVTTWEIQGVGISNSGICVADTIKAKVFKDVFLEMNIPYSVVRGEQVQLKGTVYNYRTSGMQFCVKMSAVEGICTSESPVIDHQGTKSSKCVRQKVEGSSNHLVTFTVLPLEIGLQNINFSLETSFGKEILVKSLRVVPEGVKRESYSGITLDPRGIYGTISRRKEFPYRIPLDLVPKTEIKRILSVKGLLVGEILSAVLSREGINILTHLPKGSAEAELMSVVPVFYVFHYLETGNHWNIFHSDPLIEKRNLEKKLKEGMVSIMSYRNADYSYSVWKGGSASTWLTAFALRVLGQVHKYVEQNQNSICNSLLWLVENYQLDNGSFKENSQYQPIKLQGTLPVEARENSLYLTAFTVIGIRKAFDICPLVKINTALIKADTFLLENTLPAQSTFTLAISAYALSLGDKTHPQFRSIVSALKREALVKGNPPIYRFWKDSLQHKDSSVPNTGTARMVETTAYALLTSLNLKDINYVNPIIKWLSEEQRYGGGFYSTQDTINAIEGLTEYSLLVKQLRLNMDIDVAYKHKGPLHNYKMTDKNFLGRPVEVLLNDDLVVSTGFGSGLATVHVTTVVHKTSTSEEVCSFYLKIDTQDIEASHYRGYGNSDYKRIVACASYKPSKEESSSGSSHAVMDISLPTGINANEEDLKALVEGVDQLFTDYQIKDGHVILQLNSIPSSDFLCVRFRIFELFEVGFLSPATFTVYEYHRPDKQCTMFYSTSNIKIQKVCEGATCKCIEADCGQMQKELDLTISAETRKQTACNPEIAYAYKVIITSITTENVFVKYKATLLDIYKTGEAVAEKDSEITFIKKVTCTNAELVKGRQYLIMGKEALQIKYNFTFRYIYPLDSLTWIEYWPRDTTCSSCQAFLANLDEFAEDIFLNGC

Binder	IC50, hemolysis assay with 1% cynomolgus monkey serum [nM]
KVERFDDGYWEYPGK ([cyclo(1,6)]Ac-K-V-E-R-F-D-(N-Me)D-Tbg-Y-azaTrp-E-Y-P-Chg-(Lys-C16)) [R3183]	4.2

Molecular target: T1, human C5 protein
Assay: cell-based or functional assay
Remark: another data set of the same source

Binder	Avg. IC50, hemolysis assay with C5 depleted sera [nM]
B1	15.5
Ac-KVERFD[NMeD][Tle]YWEYP[Chg]K(Palmitoyl) (lactam 1-6) [R3195]	62.5
Ac-KVERFD[NMeD][Tle]YWEYP[Chg]K (lactam 1-6) [R3196]	3
Ac-KVERFD[NMeD][Tle]YWEYP[Chg][Lys(ivDde)] (lactam 1-6) [R3197]	4
[Mpa]VERFC[NMeD][Tle]Y[Trp(7-aza)]EYP[Chg]K(Palmitoyl) (bridge 1-6; also: cyclo(1,6) between Cys1 and Cys6, ring kind not given here) [R3198]	142
[Mpa][dA]ERFC[NMeD][Tle]Y[Trp(7-aza)]EYP[Chg]K(Palmitoyl) (bridge 1-6; also: cyclo(1,6) between Cys1 and Cys6, ring kind not given here) [R3199]	112

Molecular target: T1, human C5 protein
Assay: cell-based or functional assay
Remark: another data set of the same source

Binder	Avg. IC50 (nM), human hemolysis assay [nM]
B2	2940
B3	> 100000
Ac-[Nva]CYNN[Tle]ECEYP[Phg][Tle]-NH2 (cysteine pairing not given here) [R3128]	> 100000
Ac-[Nva]CYNN[Tle]ECEYP[Phg][Tle]-NH2 (linker 2-8 via mXylyl(3)) [R3129]	> 100000
Ac-[Nva]CYEN[Tle]YCEYP[Phg][Nva]-NH2 (linker 2-8 via mXylyl″) [R3017]	> 100000
B4	71.3

Molecular target: T1, human C5 protein
Assay: cell-based or functional assay
Remark: another data set of the same source

Binder	Avg. IC50, human hemolysis assay [nM]
Ac-[Nva]C[Phg]T[Trp(1-Me)]EY[NMeS]AC[Nva]-NH2 (linker 2-10 via mXylyl(3)) [R3109]	> 100000
B2	2940
B3	> 100000
Ac-CVERFCVYWEF-NH2 (linker 1-6 via mXylyl(3)) [R3124]	> 100000
Ac-CVERFCWEF-NH2 (linker 1-6 via mXylyl(3)) [R3125]	> 100000
Ac-[Nva]CYNN[Tle]ECEYP[Phg][Tle]-NH2 (cysteine pairing not given here) [R3128]	> 100000
Ac-[Nva]CYNN[Tle]ECEYP[Phg][Tle]-NH2 (linker 2-8 via mXylyl(3)) [R3129]	> 100000
Ac-[Nva]C[Phg]TW[Ala(1H-tetrazol-5-yl)]Y[NMeS]HC[Nva]-NH2 (linker 2-10 via mXylyl(3)) [R3131]	> 100000
Ac-[Nva]C[Phg]T[dW]EY[NMeS]HC[Nva]-NH2 (linker 2-10 via mXylyl(3)) [R3132]	> 100000
Ac-[Nva]CYEN[Tle]YCEYP[Phg][Nva]-NH2 (linker 2-8 via mXylyl″) [R3017]	> 100000
Ac-[Nva]C[Phg]T[Trp(7-aza)]EY[NMeS]HC[Nva]P[Nva]-NH2 (linker 2-10 via mXylyl″) [R3008]	97
B4	71.3
Ac-[Nva]C[Phg]T[Trp(5-F)]EY[NMeS]AC[Nva]-NH2 (linker 2-10 via mXylyl(3)) [R3088]	> 100000
Ac-[Nva]C[Phg]TWEY[NMeS]AC[Nva]-NH2 (linker 2-10 via mXylyl(3)) [R3091]	483
Ac-[Nva]C[Phg]TFEY[NMeS]AC[Nva]-NH2 (linker 2-10 via mXylyl(3)) [R3092]	> 50000
Ac-[Nva]C[Phg]TAEY[NMeS]HC[Nva]-NH2 (linker 2-10 via mXylyl(4)) [R3034]	> 50000
MCVERFCDVYWE-NH2 (linker 2-7 via mXylyl(4)) [R3043]	934
MCVERFCDVYW-NH2 (linker 2-7 via mXylyl(4)) [R3044]	> 50000
MCVERFCDVY-NH2 (linker 2-7 via mXylyl(4)) [R3045]	> 100000
MCVERFCDV-NH2 (linker 2-7 via mXylyl(4)) [R3046]	> 100000
MCVERFC-NH2 (linker 2-7 via mXylyl(4)) [R3047]	> 100000
Ac-CVERFCDVYWEF-NH2 (linker 1-6 via mXylyl(4)) [R3048]	19.3

Molecular target: T1, human C5 protein
Assay: cell-based or functional assay
Remark: another data set of the same source

Binder	Avg. IC50 (nM), human hemolysis assay [nM]
MCVERFCDVYWE-NH2 (linker 2-7 via mXylyl(4)) [R3043]	934
MCVERFCDVYW-NH2 (linker 2-7 via mXylyl(4)) [R3044]	> 50000
MCVERFCDVY-NH2 (linker 2-7 via mXylyl(4)) [R3045]	> 100000
MCVERFCDV-NH2 (linker 2-7 via mXylyl(4)) [R3046]	> 100000
MCVERFC-NH2 (linker 2-7 via mXylyl(4)) [R3047]	> 100000

Molecular target: T1, human C5 protein
Assay: cell-based or functional assay
Remark: another data set of the same source

Binder	Avg. IC50 (nM), human hemolysis assay [nM]
Ac-[Nva]C[Phg]T[Trp(1-Me)]EY[NMeS]AC[Nva]-NH2 (linker 2-10 via mXylyl(3)) [R3109]	> 100000
Ac-[Nva]C[Phg]TW[Ala(1H-tetrazol-5-yl)]Y[NMeS]HC[Nva]-NH2 (linker 2-10 via mXylyl(3)) [R3131]	> 100000
Ac-[Nva]C[Phg]T[dW]EY[NMeS]HC[Nva]-NH2 (linker 2-10 via mXylyl(3)) [R3132]	> 100000
Ac-[Nva]C[Phg]T[Trp(7-aza)]EY[NMeS]HC[Nva]P[Nva]-NH2 (linker 2-10 via mXylyl″) [R3008]	97
Ac-[Nva]C[Phg]T[Trp(5-F)]EY[NMeS]AC[Nva]-NH2 (linker 2-10 via mXylyl(3)) [R3088]	> 100000
Ac-[Nva]C[Phg]TWEY[NMeS]AC[Nva]-NH2 (linker 2-10 via mXylyl(3)) [R3091]	483
Ac-[Nva]C[Phg]TFEY[NMeS]AC[Nva]-NH2 (linker 2-10 via mXylyl(3)) [R3092]	> 50000
Ac-[Nva]C[Phg]TAEY[NMeS]HC[Nva]-NH2 (linker 2-10 via mXylyl(4)) [R3034]	> 50000
